Laboratory results published in the RNAGym collection of RNA variant scans (doi:10.1073/pnas.2313332121).

B1: TPR t1 (parent)
chain: GACCAAUCUGCCCUCAGAGCUCGAGAACAUCUUCGGAUGCAGAGGAGGCAGGCUUCGGUGGCGCGAUAGCGCCAACGUCCUCAACCUCCAAUGCAUCCCACCACAUGAUGAUGCCUGAAGAGCCUUGGUUUUUUG

Variants of: B1
Assay: polymerase ribozyme fitness, log enrichment relative to wild type (log ratio); higher = more active; in vitro selection for triplet polymerase activity
How it was run: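 A single round of triplicate in vitro selection, including frozen incubation at −7 °C, was applied to PCR-built, transcribed mutant libraries of each subunit of a heterodimeric triplet polymerase ribozyme. Illumina sequencing of input and output libraries retained genotypes with ≥10 input reads and ≥1 read per output. Fitness is the base-2 logarithm of genotype enrichment divided by wild-type enrichment, from inverse-variance-weighted replicate averages.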

| Variant | polymerase ribozyme fitness (log ratio) |
| --- | --- |
| GACCAAUCUGCCCUCAGAGCUCGAGAACAUCUUCGGAUGCAGAGGAGGCAGGCUUGGGUGGCGCGAUACCGCCAACGUCCUCCACCUCCAAUGCAUCCCACCAUAUGAUGAUGCCUGAAGAGCCUUGGUUUUUUG [C56G G69C A83C C104U] | -5.43 |
| GACCAAUCUGCCCUCAGAGCUCGAGAACAUCUUCGGAUGCAGAGGAGGCAGGCUUGGGUGGCACGAUAGCGCCAACGUCCUCAACCUCCAAUGCAUCCCACCACAUGAUGAUGCCUGAAGAGCCUUGGUUUUUUG [C56G G63A] | -2.75 |
| GACCAAUCUGCCCUCAGAGCUCGAGAACAUCUUCGGAUGCAGAGGAGGCAGGCUUGGGUGGCGCGAUAGCGCCAACGUCCUCAACCUCCAAUGCAUCCCACCACAUGAUGAUGCCUGAAGAGCCUUGGUUUUAUG [C56G U133A] | -0.615 |
| GACCAAUCUGCCCUCAGAGCUCGAGAACAUCUUCGGAUGCAGAGGAGGCAGGCUUGGGUGGCGCGAUAGCGCCAACGUCCUCAACCUCCAAUGCAUCCCACCACAUGAUGAGGCCUGAAGAGCCUUGGUUUUUUG [C56G U112G] | 0.023 |
| GACCAAUCUGCCCUCAGAGCUCGAGAACAUCUUCGGAUGCAGAGGAGGCAGGCUUUGGUGGCGCGAUAGUGCCAACGGCCUCAACCUCCAAUGCAUCCCACCACAUGAUGAUGCCUGAAGAGCCGUGGUUUUUUG [C56U C70U U78G U125G] | -1.77 |
| GACCAAUCUGCCCUCAGAGCUCGAGAACAUCUUCGGAUGCAGAGGAGGCAGGCUUGGGUGGCGCGAUAGCGCCAACGUCCUCAACCUCCAAUACAUCCCACCACAUGAUGAUGCAUGAAGAGUCUUGUUUUUUUG [C56G G93A C115A C123U G128U] | -4.6 |
| GACCAAUCUGCCCUCAGAGCUCGAGAACAUCUUCGGAUGCAGAGGAGGCAGGCUUUGGUGGCGCGAUAGCGACAACAUCCUCAACCUCCAAUGCAUACCACCACAUGAUGAUGCCUGAAGAGCCUUGGUUUUUUG [C56U C72A G77A C97A] | -3.63 |
| GACCAAUCUGCCCUCAGAGCUCGAGAACAUCUUCGGAUGCAGAGGAGGCAGGCUUGGGUUGCGCGAUAGCGCCAACGUCCUCAACCUCCAAUGCAUCCCACCACAUGAUGAUGCCUGAAGAGCCUUGGUUUUUUG [C56G G60U] | -1.44 |
| GACCAAUCUGCCCUCAGAGCUCGAGAACAUCUUCGGAUGCAGAGGAGGCAGGCUUGGGUGGCCCGAUAGCGCCAACGUCCUCAACCUCCAAUGCAUCCCACCACAUGAUGAUGGCUGAAGAGCCUUGGUUUUUUG [C56G G63C C114G] | -5.3 |
| GACCAAUCUGCCCUCAGAGCUCGAGAACAUCUUCGGAUGCAGAGGAGGCAGGCUUUGGUGGCGCGAUAGCGCCAACGUCCUCAACCUCCAAUGCAUCCCACCACUUGAUGAUGCCUGAAGAGCCUUGGUUUUUUG [C56U A105U] | -2.17 |
| GACCAAUCUGCCCUCAGAGCUCGAGAACAUCUUCGGAUGCAGAGGAGGCAGGCUUUGGUGGCGCGAUAGCGUCAACGUCCUCAACCUCCAAUGCAUCCCACCACAUGAUGAGGCCUUAAGAGCUUUGGUUUUUUG [C56U C72U U112G G117U C124U] | -2.21 |
| GACCAAUCUGCCCUCAGAGCUCGAGAACAUCUUCGGAUGCAGAGGAGGCAGGCUUGGGUGGCGCGAUAGCGCCAACGUCCACAACCACCAAUGCAUCCCACCACAUGAUGAUGCCUGAAGAGCCUUGGUUUUUUG [C56G U81A U87A] | -1.8 |
| GACCAAUCUGCCCUCAGAGCUCGAGAACAUCUUCGGAUGCAGAGGAGGCAGGCUUUGGUGGGGCGAUAGCGCCAACGUCCUCAACCUCCAAUGCAUCCCACCACAUGAUGAUGCCUGAAGAGCCUUGGUUUUUUG [C56U C62G] | -5.27 |
| GACCAAUCUGCCCUCAGAGCUCGAGAACAUCUUCGGAUGCAGAGGAGGCAGGCUUUGGUGGAGCGAUAGCGCCAACGUCCUCAACCUCCAAUGCAUCCCACCACAUGAUGAUGCCUGAAGAGCCUUGGUUUUUUG [C56U C62A] | -5.47 |
| GACCAAUCUGCCCUCAGAGCUCGAGAACAUCUUCGGAUGCAGAGGAGGCAGGCUUGGGUGGCGCGAUAGCGCCAACGUCCUCAACCUCCAAUGCAUCCCACCACAUGAUGAUGCCUGAAGAGCCUUGGUUUUUUU [C56G G135U] | -1.35 |
| GACCAAUCUGCCCUCAGAGCUCGAGAACAUCUUCGGAUGCAGAGGAGGCAGGCUUGGGUGGCGCGAUAACGCCAACGUCCUCAACCUCCAAUGCAUCCCACCACAUGAUGAUGCCUGAUGAGCCUUGGUUUUUUG [C56G G69A A119U] | -3.54 |
| GACCAAUCUGCCCUCAGAGCUCGAGAACAUCUUCGGAUGCAGAGGAGGCAGGCUUUGGUGGCGCGAUAGCGCCAACGUCCUCCACCUCCAAUGCAUCCCACCACAUGAUGAUGCCUGAAGUGCCUUUGUUUUGUG [C56U A83C A121U G127U U133G] | 1.28 |
| GACCAAUCUGCCCUCAGAGCUCGAGAACAUCUUCGGAUGCAGAGGAGGCAGGCUUUGGUGGCGCGAUAGCGCCAACGUCCUCAGCCUCCAUUGCAUCAAACCACAUGAUGAUGCCUGAAUAGCCUUGGUUUUUUG [C56U A84G A91U C98A C99A G120U] | -7.08 |
| GACCAAUCUGCCCUCAGAGCUCGAGAACAUCUUCGGAUGCAGAGGAGGCAGGCUUUGGUGGCGCGAUAGCGCCAACGUCCUCAGCCUCCAAUGCAUCCCACCACAUGAUGAUGCCUGAAGAGCCUUGGUUUUGUG [C56U A84G U133G] | -1.14 |
| GACCAAUCUGCCCUCAGAGCUCGAGAACAUCUUCGGAUGCAGAGGAGGCAGGCUUGGGUGGCGCGAUAGCGCCAACUUCCUCAACCUCCAAUGCAUCCCACCACAUGAUGAUGCGUGAAGAGCCUUGGUUUUUUG [C56G G77U C115G] | -3.16 |
| GACCAAUCUGCCCUCAGAGCUCGAGAACAUCUUCGGAUGCAGAGGAGGCAGGCUUUGGUGGCGCGAUAGCGCCAACGUCCUCAACCUCCAAUGCAUCCCACCACUUGAUGAUGCCUGAAGAACCUUGGUUUUUUG [C56U A105U G122A] | -2.96 |

| Variant | polymerase ribozyme fitness (log ratio) |
| --- | --- |
| GACCAAUCUGCCCUCAGAGCUCGAGAACAUCUUCGGAUGCAGAGGAGGCAGGCUUGGGUGGCGCGAUAGCGCCAACGUCCUCAACCUCCAAUGCAUCCCACCACAUGAUGAUGCCUGAAGAGCCUUGGUUUCUUG [C56G U132C] | -0.811 |
| GACCAAUCUGCCCUCAGAGCUCGAGAACAUCUUCGGAUGCAGAGGAGGCAGGCUUUGGUGGCGCGAUAGCGUCAACGACAUCAACCUCCAAUGCAUCCCACCACAUGAUGAUGCCUGAAGAGCCUUGGUUUUUUG [C56U C72U U78A C80A] | -4.1 |
| GACCAAUCUGCCCUCAGAGCUCGAGAACAUCUUCGGAUGCAGAGGAGGCAGGCUUUGGUGGCGCGAUAGCGCCAACGUCCUCAACCUCCUAUGCAUCCCACCACAUGAUGAUGCCUGAAGAGCCUUGGUUUUUUG [C56U A90U] | -0.55 |
| GACCAAUCUGCCCUCAGAGCUCGAGAACAUCUUCGGAUGCAGAGGAGGCAGGCUUUGGUGGCGCGAUAGUGCCAACGUCCUCAACCUCCAAUGCAUCCCACCACAUGAUGAUGCCUGAAGAGCCUUGGUUUUUUG [C56U C70U] | -0.666 |
| GACCAAUCUGCCCUCAGAGCUCGAGAACAUCUUCGGAUGCAGAGGAGGCAGGCUUUGGUGGCGCGAUAGCGCCAACGUCCUCAACCUCCAAUGCGUCCCACCACAUGAUGAUGCCUGAAGAGCCUUGGUUUUUUG [C56U A95G] | 0.263 |
| GACCAAUCUGCCCUCAGAGCUCGAGAACAUCUUCGGAUGCAGAGGAGGCAGGCUUUGGUGGCGCGAUAGCGCCAACGUCCUCAACCUCCAAUGCCUCCCACCACAUGAUGAUGCCUGAAGAGCCUUGGUUUUUUG [C56U A95C] | -1.26 |
| GACCAAUCUGCCCUCAGAGCUCGAGAACAUCUUCGGAUGCAGAGGAGGCAGGCUUGGGUGGCGCGAUAGCGCCAACGUCCUCAACCUCCAAUGCAUCCCACCACAUGAUUAUGCCUGAAGAGCCUUGGUUUUUUC [C56G G110U G135C] | -1.62 |
| GACCAAUCUGCCCUCAGAGCUCGAGAACAUCUUCGGAUGCAGAGGAGGCAGGCUUUGGUGGUGCGAUAGCGCCAACGUCCUCAACCUCCAAUGCAUCCCAUCACAUGAUGAUGCCUGAAGAACCUUGGUUUUUUG [C56U C62U C101U G122A] | -2.35 |
| GACCAAUCUGCCCUCAGAGCUCGAGAACAUCUUCGGAUGCAGAGGAGGCAGGCUUUGGUGGCGCGAUAGCGCCAACGUCCUCAACCUCCAAUGCAUCCCCCCACAUGAUGAUGCCUGAAGAGCCUUGGUUUUUUG [C56U A100C] | -1.29 |
| GACCAAUCUGCCCUCAGAGCUCGAGAACAUCUUCGGAUGCAGAGGAGGCAGGCUUUGGUGGCGCGAUAGCGCCAACGUCCUCAACCUCCAAUGCAUCCCACCACAUGAUGCUGCCUGAAGAGCCUUGGUUUUUUG [C56U A111C] | -0.414 |
| GACCAAUCUGCCCUCAGAGCUCGAGAACAUCUUCGGAUGCAGAGGAGGCAGGCUUGGGUGGCGCGAUAGCGCCAACGUCCUCAACCUCCAACGCAUCCCACCACAUGAUGAUGCCUGAAGAGACUUGGUUUUUUG [C56G U92C C123A] | -1.13 |
| GACCAAUCUGCCCUCAGAGCUCGAGAACAUCUUCGGAUGCAGAGGAGGCAGGCUUUGGUGGCGCGAUAGCGGCAACGUCCUCAACCUCCAAUGCAUCCCACCACAUGAUGAUGCCUGAAGAGCCUUGGAUUUUUG [C56U C72G U129A] | -1.89 |
| GACCAAUCUGCCCUCAGAGCUCGAGAACAUCUUCGGAUGCAGAGGAGGCAGGCUUGGGUGGCGCGAUACCGCCAACGUCCUCAACCCCCAAUGCAUCCCACCACAUGAUAAUGCCUGAAGAGCCUUGGUUUUUUG [C56G G69C U87C G110A] | -5.42 |
| GACCAAUCUGCCCUCAGAGCUCGAGAACAUCUUCGGAUGCAGAGGAGGCAGGCUUUGGUGGCGCGAUAGCGCCAACGUCCUCUACCUCCAAUGCAUCCCACCACAUGAUGAUGCCUGAAGAGCCUUGGUUUUUUG [C56U A83U] | 0.108 |
| GACCAAUCUGCCCUCAGAGCUCGAGAACAUCUUCGGAUGCAGAGGAGGCAGGCUUUGGUGGCGCGAUAGUGCCAACGUCCUGAACCUCCAAUGCAUCCCACCACAUGAUGAUGCCUGAAGAGCAUUGGUCUUUUG [C56U C70U C82G C124A U130C] | 0.377 |
| GACCAAUCUGCCCUCAGAGCUCGAGAACAUCUUCGGAUGCAGAGGAGGCAGGCUUUGGUGGCGCGAUAGCGCCAACGUCCUCAACCUCCAAUGCAUCCCACCACCUGAUGAUGCCUGAAGAGUCUUGGUUUUUUG [C56U A105C C123U] | -1.18 |
| GACCAAUCUGCCCUCAGAGCUCGAGAACAUCUUCGGAUGCAGAGGAGGCAGGCUUGGGUGGCCCGAUAGCGCCAACGUCCUCAACCUCCAAUGCAUCCCACCACAUGAUGAUGCAUGAAGAGCCUUGGUUUUUUG [C56G G63C C115A] | -2.19 |
| GACCAAUCUGCCCUCAGAGCUCGAGAACAUCUUCGGAUGCAGAGGAGGCAGGCUUGGGUGGCGCGAUAGCUCCAACGUCCUCAACCUCCAAUGCAUCCCACCACAUGAUGAUGCCUGAAGAGCCUUGGUUUUUUG [C56G G71U] | -3.27 |
| GACCAAUCUGCCCUCAGAGCUCGAGAACAUCUUCGGAUGCAGAGGAGGCAGGCUUGGGUGGCGCGAUAGCCCCAACGUCCUCAACCUCCAAUGCAUCCCACCACAUGAUGAUGCCUGAAGAGCCUUGGUUUUUUG [C56G G71C] | -3.19 |
| GACCAAUCUGCCCUCAGAGCUCGAGAACAUCUUCGGAUGCAGAGGAGGCAGGCUUGGGUGGCGCGAUAGCGCCAACGUCCUCAACCACCAAUGCAUCCCACCACAUGAUGAUGCUUGAAGAGCCUUGGUUUUUUG [C56G U87A C115U] | -1.94 |
| GACCAAUCUGCCCUCAGAGCUCGAGAACAUCUUCGGAUGCAGAGGAGGCAGGCUUUGGUGGCGCGUUAUCGCCAACGUCAUCAACCUCCAAUGCAUCCCACCACAUGAUGAUGCCUGAAGCGCCUUGGUAUUUUG [C56U A66U G69U C80A A121C U130A] | -6.49 |
